This note sets out measurements from patent US20040001839A1, “Multimers - isolated molecules comprising epitopes containing sulfated moieties, antibodies to such epitopes, and uses thereof” (priority 2000, published 2004).

No end group written: not given here. *: point of attachment. sulfate = O=S(=O)(O)*

Test [1] deals with T1, PSGL-1 on KG-1 cells (human) (UniProt Q14242).
T1 sequence (sulfated tyrosine residues at the N-terminal site, looked up): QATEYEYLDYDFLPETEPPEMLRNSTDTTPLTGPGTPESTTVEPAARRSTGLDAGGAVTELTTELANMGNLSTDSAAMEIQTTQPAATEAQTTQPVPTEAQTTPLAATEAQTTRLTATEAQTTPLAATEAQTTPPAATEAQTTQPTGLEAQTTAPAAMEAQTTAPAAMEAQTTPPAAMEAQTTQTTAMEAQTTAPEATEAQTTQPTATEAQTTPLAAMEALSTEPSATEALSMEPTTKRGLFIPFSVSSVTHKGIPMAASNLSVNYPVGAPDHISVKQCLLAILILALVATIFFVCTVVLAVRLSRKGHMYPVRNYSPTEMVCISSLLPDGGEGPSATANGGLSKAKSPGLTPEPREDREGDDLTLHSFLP
The test is described as follows: FACS, KG-1 cells. For orientation: A flow cytometer gives signals particle by particle.

Test [2] has as its target T1, PSGL-1 on KG-1 cells (human). Description: FACS, KG-1 cells, 5 ng tetramers.
Test [3] has the same target. Description: FACS on KG-1 cells.
The target in test [4] is Y1 scFv. The test is described as follows: competitive FACS: Y1-scFv 1 µg preincubated with peptide at 2.5 µM, residual binding to washed platelets. To be noted: remark: other sources report otherwise.
Y1 scFv, sequence (chain, as listed by the source): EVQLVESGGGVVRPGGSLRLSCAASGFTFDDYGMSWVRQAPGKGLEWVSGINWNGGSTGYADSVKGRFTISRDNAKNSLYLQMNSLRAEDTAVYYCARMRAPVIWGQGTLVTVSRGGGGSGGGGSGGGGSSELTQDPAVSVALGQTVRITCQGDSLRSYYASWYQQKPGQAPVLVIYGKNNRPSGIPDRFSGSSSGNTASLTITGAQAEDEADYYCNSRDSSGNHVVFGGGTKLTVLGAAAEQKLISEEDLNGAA
Test [5] concerns the target Y1 scFv. The test is described as follows: competition ELISA: Y1 0.25 µg/well preincubated with peptide at 25 µM, residual binding to glycocalicin. As to conditions: remark: other sources report otherwise. Background: In an ELISA, binding on a coated surface is turned into a signal by an enzyme label.
Test [6] addresses Y1 scFv. The test is described as follows: competitive FACS: Y1-scFv 1 µg preincubated with peptide at 200 µM, residual binding to washed platelets. To be noted: remark: other sources report otherwise.
For test [7], the target named is Y1 scFv. Description: competition ELISA: Y1 0.25 µg/well preincubated with peptide at 0.5 µM, residual binding to glycocalicin. As to conditions: remark: other sources report otherwise.
Test [8] addresses Y1 scFv. Description: competition ELISA: Y1 0.25 µg/well preincubated with peptide at 2.5 µM, residual binding to glycocalicin. As to conditions: remark: other sources report otherwise.
In test [9] the target is Y1 scFv. Description: competition ELISA: Y1 0.25 µg/well preincubated with peptide at 200 µM, residual binding to glycocalicin. To be noted: remark: other sources report otherwise.

B1: Y1-biotag tetramers with streptavidin-PE (protein, part only; not given: streptavidin-PE carrier, not shown: another chain or arm of the molecule; large carriers; small tags and cut ends)
scFv 1: MEVQLVESGGGVVRPGGSLRLSCAASGFTFDDYGMSWVRQAPGKGLEWVSGINWNGGSTGYADSVKGRFTISRDNAKNSLYLQMNSLRAEDTAVYYCARMRAPVIWGQGTLVTVSRGGGGSGGGGSGGGGSSELTQDPAVSVALGQTVRITCQGDSLRSYYASWYQQKPGQAPVLVIYGKNNRPSGIPDRFSGSSSGNTASLTITGAQAEDEADYYCNSRDSSGNHVVFGGGTKLTVLGGGGLNDIFEAQKIEWHE
scFv 2: MEVQLVESGGGVVRPGGSLRLSCAASGFTFDDYGMSWVRQAPGKGLEWVSGINWNGGSTGYADSVKGRFTISRDNAKNSLYLQMNSLRAEDTAVYYCARMRAPVIWGQGTLVTVSRGGGGSGGGGSGGGGSSELTQDPAVSVALGQTVRITCQGDSLRSYYASWYQQKPGQAPVLVIYGKNNRPSGIPDRFSGSSSGNTASLTITGAQAEDEADYYCNSRDSSGNHVVFGGGTKLTVLGGGGLNDIFEAQKIEWHE
scFv 3: MEVQLVESGGGVVRPGGSLRLSCAASGFTFDDYGMSWVRQAPGKGLEWVSGINWNGGSTGYADSVKGRFTISRDNAKNSLYLQMNSLRAEDTAVYYCARMRAPVIWGQGTLVTVSRGGGGSGGGGSGGGGSSELTQDPAVSVALGQTVRITCQGDSLRSYYASWYQQKPGQAPVLVIYGKNNRPSGIPDRFSGSSSGNTASLTITGAQAEDEADYYCNSRDSSGNHVVFGGGTKLTVLGGGGLNDIFEAQKIEWHE
scFv 4: MEVQLVESGGGVVRPGGSLRLSCAASGFTFDDYGMSWVRQAPGKGLEWVSGINWNGGSTGYADSVKGRFTISRDNAKNSLYLQMNSLRAEDTAVYYCARMRAPVIWGQGTLVTVSRGGGGSGGGGSGGGGSSELTQDPAVSVALGQTVRITCQGDSLRSYYASWYQQKPGQAPVLVIYGKNNRPSGIPDRFSGSSSGNTASLTITGAQAEDEADYYCNSRDSSGNHVVFGGGTKLTVLGGGGLNDIFEAQKIEWHE
modifications: Each chain pos 251: Lys of the BirA tag carries biotin, written K. The four chains are held non-covalently on streptavidin conjugated to phycoerythrin, which is not given.
As to B1, the fold more reactive in test [1] is greater than 100 fold. This molecule also showed a fold higher response than other Y1 antibody forms in test [2] of 10 to 20 fold. In test [3], the fold increase in sensitivity of the binding is greater than 100 fold.

B2: P-1-S (peptide)
peptide: GDEGDTDLY(sulfate)DY(sulfate)Y(sulfate)PEEDTE
With B2, the Residual Binding of Y1 (% of baseline) (Geo Mean) was 41% with Y1 scFv [4] and 5% in the test with Y1 scFv [6]. The Residual Binding of Y1 (% of baseline) with Y1 scFv [5] amounted to 25%; with Y1 scFv [7], 89%; with Y1 scFv [8], 62%; with Y1 scFv [9], 0%.
